Here are results for six substances from publication PMC7806870.

The term Kd denotes the equilibrium constant for the complex coming apart.

Assay [1] has as its target extracellular domain of the human β-klotho protein (human) (UniProt Q86Z14). In words: BLI. In general terms: In BLI a coated tip is dipped into the sample, and binding shifts an interference pattern.
The target of assay [2] is GLP-1 receptor (UniProt P43220).
The target is the same in assay [3]. The source holds these as a separate data set.
For assay [4], the target named is extracellular domain of the human β-klotho protein (human) (UniProt Q86Z14).
Assay [5] has the same target. This is another data set of the same source.

Sequence of extracellular domain of the human β-klotho protein (human) (Q86Z14 1-996): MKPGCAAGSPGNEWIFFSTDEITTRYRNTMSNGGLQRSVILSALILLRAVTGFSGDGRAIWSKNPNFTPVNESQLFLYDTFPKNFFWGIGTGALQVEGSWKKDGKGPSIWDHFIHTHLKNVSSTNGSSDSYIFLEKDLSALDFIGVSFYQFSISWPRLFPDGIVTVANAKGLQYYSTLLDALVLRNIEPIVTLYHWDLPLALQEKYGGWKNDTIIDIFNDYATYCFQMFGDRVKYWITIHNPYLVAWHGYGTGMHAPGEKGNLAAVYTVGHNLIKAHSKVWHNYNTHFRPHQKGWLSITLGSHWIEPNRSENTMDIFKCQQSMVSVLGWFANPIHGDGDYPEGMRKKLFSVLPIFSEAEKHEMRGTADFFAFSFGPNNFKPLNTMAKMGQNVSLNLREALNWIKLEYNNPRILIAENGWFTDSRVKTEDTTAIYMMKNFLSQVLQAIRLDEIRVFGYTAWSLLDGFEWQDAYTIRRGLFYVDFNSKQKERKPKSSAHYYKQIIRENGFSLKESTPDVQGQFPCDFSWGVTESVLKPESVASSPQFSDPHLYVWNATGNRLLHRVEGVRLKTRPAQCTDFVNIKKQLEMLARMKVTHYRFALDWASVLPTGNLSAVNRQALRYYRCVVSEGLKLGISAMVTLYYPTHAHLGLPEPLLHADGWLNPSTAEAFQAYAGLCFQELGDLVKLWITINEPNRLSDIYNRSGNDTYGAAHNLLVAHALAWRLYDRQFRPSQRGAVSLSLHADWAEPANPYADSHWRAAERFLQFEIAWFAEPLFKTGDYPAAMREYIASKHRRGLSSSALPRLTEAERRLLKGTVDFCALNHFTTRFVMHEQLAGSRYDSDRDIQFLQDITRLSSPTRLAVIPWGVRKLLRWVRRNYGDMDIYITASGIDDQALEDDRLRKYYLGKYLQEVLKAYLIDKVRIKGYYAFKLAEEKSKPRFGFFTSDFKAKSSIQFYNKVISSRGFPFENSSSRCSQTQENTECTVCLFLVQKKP
Sequence of GLP-1 receptor (P43220 24-463): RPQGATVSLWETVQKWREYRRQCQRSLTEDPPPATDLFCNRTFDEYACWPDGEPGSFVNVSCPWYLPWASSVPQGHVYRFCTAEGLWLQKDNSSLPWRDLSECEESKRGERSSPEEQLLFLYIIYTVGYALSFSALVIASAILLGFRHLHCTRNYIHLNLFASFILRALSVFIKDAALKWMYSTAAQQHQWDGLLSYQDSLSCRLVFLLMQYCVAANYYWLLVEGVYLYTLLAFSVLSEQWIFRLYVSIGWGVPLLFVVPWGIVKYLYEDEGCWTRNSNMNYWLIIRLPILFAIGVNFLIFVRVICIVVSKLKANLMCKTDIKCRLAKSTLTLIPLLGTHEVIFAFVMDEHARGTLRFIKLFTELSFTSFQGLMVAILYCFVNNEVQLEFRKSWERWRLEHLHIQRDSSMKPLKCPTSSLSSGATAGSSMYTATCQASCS

“Fc-FGF21 (L98R, S167H, P171A) (Fc fusion)” showed a Kd in assay [1] of 0.59 nM. That is a sub-nanomolar value.
The same measure, in the same setting: in the case of Fc-FGF21 (L98R, P171A) (Fc fusion) it was 0.767 nM.
On the same count and under the same terms, in the case of “GLP-1-Fc-FGF21 (L98R, S167H, P171A) (Fc fusion)” it was 0.24 nM.
The substance Dulaglutide (Fc fusion) registered an EC50 of cAMP production in HEK293 cells expressing GLP-1R alone (Fig. 2b) in the assay with GLP-1 receptor [2] of 0.06 nM. In the assay with GLP-1 receptor [3], this substance registered an EC50 of cAMP in HEK293 cells expressing both GLP-1R and β-Klotho (Fig. 2c) of 0.21 nM.
Take “Fc-FGF21 (L98R, S167H, P171A, R175L) (Fc fusion)”: in assay [4], the EC50 of ERK1/2 phosphorylation in HEK293 cells expressing β-Klotho (Fig. 2a) amounted to 1.13 nM. The same substance showed an EC50 of cAMP in HEK293 cells expressing both GLP-1R and β-Klotho (Fig. 2c) in assay [5] of 305 nM. The same substance returned a Kd in assay [1] of 0.316 nM.
As to “GLP-1-Fc-FGF21 (L98R, S167H, P171A, R175L) (Fc fusion)”, the EC50 of cAMP production in HEK293 cells expressing GLP-1R alone (Fig. 2b) with GLP-1 receptor [2] worked out at 0.15 nM. This substance showed an EC50 of ERK1/2 phosphorylation in HEK293 cells expressing β-Klotho (Fig. 2a) in assay [4] of 1.52 nM. The substance also returned an equilibrium dissociation constant (Kd) in assay [1] of 0.0924 nM.
